From a protein production outcome set (Wang et al. 2014)

Assay: label from the status in PepcDB records

| Sequence | protein production |
| --- | --- |
| MLWFGQPGPGGWNRKCLRPFTLPRGQHPQPSYGFPQVNEVVFSPGESHCATCSEDGSVRVWALASMELVIQFQVLNQSCLCLAWSPPCCGRPEQQRLAAGYGDGSLRIFSVSRTAMELKMHPHPVALTTVAFSTDGQTVLSGDKDGLVAVSHPCTGTTFRVLSDHQGAPISTICVTCKETQGHLPPSLAAFCPWDGALLMYVGPGVYKEVIIYNLCQKQVVEKIPLPFFAMSLSLSPGTHLLAVGFAECMLRLVDCAMGTAQDFAGHDNAVHLCRFTPSARLLFTAARNEILVWEVPGL | failed |
| MEGLIPFLYKAIVMYKREGSFSSVLLSDHHSPSNAGYYMRLPGDSSSRFRTSDLRRFGTDRFGMLETTPSSSPSRVSTRNITKRT | failed |
| MSDAHVLKSRLEWGEPAFTILDVRDRSTYNDGHIMGAMAMPIEDLVDRASSSLEKSRDIYVYGAGDEQTSQAVNLLRSAGFEHVSELKGGLAAWKAIGGPTEGIIESRLEHHHHHH | failed |
| MQTLREFTRKTKRGNILKIVREHYLRDDIGCGSELCRECFQNEVYQLTSQHANKSTLFKFPHYLVLDTNVVLDQIDVLEEDVLRNVVVLTTVLNEVKHRSSAIYKRFNEIVHDRTRNFYVFVNEHHKETYADREPDETANDRNDRAIRLATKWYDDHLQASQSSKEFERSGKAATRVVLLTDDAANRAKAEAEGILVTTAAEYVKSLEDFPLLMDKLSHKTFDSEKNGLPQYPPHLSMKELLEGLRQNKLLQGTFQASRENYLEGTVNVEKFEKGILIQGRESLNRAVDGDLVAVELLPEAEWSAPSEIVLEEKNVYADEVPSEERAKDENEMLNQVRAAALSAERTPTGRIVGIVRRKWRQYCGILQPSLIEDTNRHIFVPADRKIPRIRIETRQAAMLQNQRIIVTIDTWPRNSRYPHGHFVRSLGPLGDMATENEVILLEHDVPHCKFSDEVLSFLPKMPWTITDEDYSKRVDLRDLYICSVDPPGCTDIDDALHCKELPNGNLEVGVHIADVSHFIRPGNALDMEAAARGTTVYLVGKRIDMVPELLSSNLCSLVGGVERFAFSCVWEVDNEANVLSKRFHKSVIKSKRAMTYEEAQNIIDDATQQNEIAKSLRNLNRLAKILKKRRMDNGALVLASPEIRFQVDSETHEPLEVEVKQMRETNSMVEEFMLLANITVAEHIATEFSECAVLRRHPRPPPTNFDPLVKSARYQGFQVDINSGLELSHSLDKCVKADNPYFNTMIRILTTRCMMQAVYFISGSLQKEEFFHYGLAAPIYTHFTSPIRRYSDIMVHRLLAASIGADSTYAQLLDRKSNEELCHNLNYRHKMAQYAGRASVALNTHLFFRGKEEDEEGYVLFVRKNALQVLIPKYGLEGTLYLKSDKDGKDGVERVKSEIVFTFNEEDHTQRCGDVVFHSFDPVTVRLSLDSSNVQHEKLIFRLVKPYIKGFSVETTTEGTDSQAVSAAPPSKKTKKDKKKK | failed |
| MATGLGFFKLSFLLSLLSGGSDLLGPDAESGVAQIGKFPPSCNRIECPSYELVHSGNGYEIRRYNNTVWVSTEPIPDISLVDATRTAFFQLFAYIQGKNEYHQKIEMTAPVISQVSPSDGPFCESSFTVSFYVPKKNQPDPAPSENLHIQKWNSRYVAVRQFSGFVSDDSIGEQAAALDSSLKGTAWANAIAKSKEDGGVGSDSAYTVAQYNSPFEFSGRVNEIWLPFELDV | failed |
| MTRAPPRRCTSPMTPTAPSPLVWRDDGLPQSSLYGDVYFSSVDGLAETRAVFLAGCGLPERFAERRDFVVGELGFGSGLNIAALLDLWRREKPPGGRLHIFSIEAHPLSRDEAARILAHWPELGEAAQVLLDHWPGRARGFHRVDLPGFDAVLDLAVMDVVEALEAWDGLADAWFLDGFSPALNPAMWRDEVLAAVGARSAPGARAATFTVAGAVRRGLSAAGFEIAKRPGFGRKRERLEAWRPGVRPVAQRPETLAIIGGGIAGAALARAARAAGLEVTVIDDADAVAASGNPAALVTPALDAGGGPRAALYAQALSRAVTLYEAQPDAVLAREVLQLAAGERDPARFATVADQDLFEPGDMRTLEAEDTRARLETPTPALAMAGARVIAPAEVTAAWAGPVVRRRVAKAERDGEGWRLLDAAGEIIARADRLALAGGAAGADLLAEAPLRPVRGQASWTRGHGAPATAFGGYAIPTREGLLFGATHDRDDTQTNVRSEDHARNLATLAKGLPALAARLAGSTFEGRAAIRATTPDRLPLADLREDGVIVLTGLGSRGFCLAPLLAEHLVARLLDVPSPLPRQLSHLLKLTRFDSPVTRSRL | failed |
| MGGIIIIDVHCHLDFKDFNRNREEVIERARSKLRAVIDSGVGLGGNRRALELASLNPGFICPTMGFHPVDASKARQDLIGEVVSQIESNIDLIVAVGETGMDFHHTRDEEGRRRQEETFRVFVELAAEHEMPLVVHARDAEERALETVLEYRVPEVIFHCYGGSIETARRILDEGYYISISTLVAFSEHHMELVRAIPLEGMLTETDSPYLSPFRGKRNEPAFVEEAVRAIARIKDMDLEDVDSITTANAERVFGL | failed |
| MTSQVSSTTEQADEPVVGEQRKPAGAKDVRRLDRVIIRFAGDSGDGMQLTGDRFTSETASFGNDLSTLPNFPAEIRAPAGTLPGVSSFQLHFADHDILTPGDAPNVLVAMNPAALKANVSDLPRGAEVIVNTDEFTKRAMQKVGYGTSPLEDGSLDGYSVHPVPLTTLTVEALKEFELSRKEAERSKNMFALGLLSWMYHRPTEGTEKFLTTKFAKKPAIAAANIAAFRAGWNFGETTEDFAVSYEVAPAQSAFPAGTYRNISGNLALSYGLIAASRQADLPLYLGSYPITPASDILHELSKHKNFGVRTFQAEDEIAGIGAALGAAFGGSLAVTTTSGPGVALKSETIGLAVSLELPLLVVDIQRGGPSTGLPTKTEQADLLQAMYGRNGEAPVPVVAPRTPADCFEAAIEAARIALTYRTPVFLLSDGYLANGSEPWRIPETDGLPDLRVRFAQGPNHTLDDGTEVFWPYKRDPGTLARPWAIPGTPGLEHRIGGIEKQDGTGNISYDPANHDFMVRTRQAKIDGIDVPDIEVDDPDGASALVLGWGSTYGPITAAVRRLRTAGESIAQAHLRHLNPFPSNLGAVLKGYDKVVIPEMNLGQLATLIRAKYLVDAHSYNQVNGMPFKAEQLATALKEAIDD | failed |
| MSILMPVRNEERFLPAALASLCRQSLTAWELIVVDDGSTDDTPELLRVAAARDRRVRVFNNAGAGLVDALNYGLAHCRAELVARMDGDDISHPQRLERQAAALDADPGLGLVATRFRHFPRHSVGLGMRAYEEWQNGLLTHEEIMRDRFVESPVVHPSVMARRQALTDAGGYRKTGWAEDYDLWLRLAAGGVRFTRLPEVLFFWRERPERATRTMGEYAADAFRACKIHHLCQGFLLGVDNVTLAGAGLEGRAWQRALAREGVRVGRWLDVDPRKQGRILHGAPVTAPDDVRAGAEKILVTVGTRGARDGVRAWARRAGLREGEDFVCVTLEHHHHHH | failed |
| MPLEASELKPTAGPLEASELKPTAGPLEASELKPTAGPLEASELKPTAGPLEASELKPTAGPLEASELKPTAGPLEASELKPTAGMEKTKKIAVMSGKGGVGKTTVAVNLAVALAAEGYQVGLLDLDLHGPNVQRMLGVSLPPSEGEKIVPAKYGDSLKVFSLAMILQEGAPVIWRGPLKHKAIEQLTRDVEWGDLDYLICDLPPGTGDEALSTFQIIKPDAVIVVSTPQKVAGDDVRRAINFVKRLSGKILGLVENMSYLVCPNCGEKIYVFGKGETEKLAEEFGIPLIARIPMDPEVVSLSDEGRPAVVYKRGTVIEEEFKKIVEKVLSLLEHHHHHH | failed |
| METTPVTSCTIIDATDRSIRQTLGETSTLARLIWVDAGLASPPLCSGLARCGRCRVRITEAAPAPHEDDREFFSAEDISAGWRLACRHAPAHGMVVHVPLPVMPHRHASRPKHPGPFRLAVDLGTTSLQWSLLAPDGTVAAQGSETNPQMGAGSDVMSRIAMARSDKGRGRLRELVLQALRRIVADVEGTPATADAVPPAGSGDEPTTACGYESRVEELCVAGNTAMTAILADESVEGLASAPYRLEMRGGTALALPGLPPAWIPPLPAPFVGGDLSAGYLAVLTDHAPAFPFVLADLGTNGEFVLALSPERTLVTSVALGPALEGIGLTFGTVAQRGAITSFTLTPGGLVPYVLDGGEADGISGTGYISLVHALLRAGLLDVDGRFIQSPSSPLAARMARSIVSHRGEPCLPLARGLYLAARDIEEILKVKAAFSLAFERLLATAQMPSHALSGIHLAGALGQHALPADLEGLGFIPPGSGGRTRAVGNTSLRGAELLLTSPPLRDTLNTWREGCTVVDLTAAPDFSAAFLRHMHFHFLEHHHHHH | failed |
| MELKDYYAIMGVKPTDDLKTIKTAYRRLARKYHPDVSKEPDAEARFKEVAEAWEVLSDEQRRAEYDQMWQHRNDPQFNRQFHHGDGQSFNAEDFDDIFSSIFGQHARQSRQRPATRGHDIEIEVAVFLEETLTEHKRTISYNLPVYNAFGMIEQEIPKTLNVKIPAGVGNGQRIRLKGQGTPGENGGPNGDLWLVIHIAPHPLFDIVGQDLEIVVPVSPWEAALGAKVTVPTLKESILLTIPPGSQAGQRLRVKGKGLVSKKQTGDLYAVLKIVMPPKPDENTAALWQQLADAQSSFDPRKDWGKA | failed |
| MDDRTEYDVYTDGSYVNGQYAWAYAFVKDGKVHYEDADVGKNPAAATMRNVAGEIAAALYAVKKASQLGVKIRILHDYAGIAFWATGEWKAKNEFTQAYAKLMNQYRGIYSFEKVKAHSGNEFNDYVDMKAKSALGIRDLEHHHHHH | not failed |
| MQQKLENIKFVITDVDGVLTDGQLHYDANGEAIKSFHVRDGLGIKMLMDADIQVAVLSGRDSPILRRRIADLGIKLFFLGKLEKETACFDLMKQAGVTAEQTAYIGDDSVDLPAFAACGTSFAVADAPIYVKNAVDHVLSTHGGKGAFREMSDMILQAQGKSSVFDTAQGFLKSVKSMGQ | not failed |
| MKLVICAGPATTGKTAVLRHAIGKLIGRGFKPAFLKIDVQYAEEDEQFAREFAIPTRKTYSGDLCPDHCTVMVLGEALEWAGRQGADVLLVETAGLCLRCSPYVDGGLGVIVLEATSGMNLPLKVGPMLSLADVAVVTKIDRISQAEREVFRARIQDVAPGVRIREANALHGIGIDPLVDQIQATPDVDATLSLRGNPPVGTCTICVGKKEIGWKAHFGVVRSLENQTFYRGELEHHHHHH | failed |
| MSGSKTSAEKKESETEKSSDIAQVKIKDVSYTLPSKYDKSTSDDQLVLKVNVAVKNTGKDPLNVDSMDFTLYQGDTKMSDTDPEDYSEKLQGSTINADKSVEGNLFFVVDKGKQYELNYTPESYGDKKPKSVTFKIDGKDKKILATADKLQDSAKALSAYVDVLLFGKDNADFEKITGANKNEIVNDFNESAKDGYLSASGLSSTYADSKALDNIVNGIKEGLSKNSSIQAKTTSISKDEAIVEATVKPVDASSLSDRIEDKVKDYYSKNSSASYEEAVKYALQVYPEEFKKLGPASSEKTVEVKMKKNDIDQWQLDMDDYRAAELVEAFIKELEHHHHHH | not failed |
| MGLGRQSLNIMTFSGQELTAIIKMAKSMVMADGKIKPAEIAVMTREFMRFGILQDQVDLLLKASDSIEASQAVALIARMDEERKKYVASYLGVIMASDGDIDDNELALWTLISTLCGLPTMTVMEAINNMKNL | not failed |
| DFLDVQKETPRIRIAIDRVGVKNIKFPLKIHDDFAFLTLNLFVDVPADRKGADMSRAVESIQKVINAGSYGERIGDIGIAICDEALSRFNYSEKAQCEVNIQYYRRSGERYLEYRMYVETAKDRKQIMKNEIGISYVTMTACPCAMETTRALISMDNPDISDAISAIPTITHNQRNVTKLTVDNRSKMITVWDLADVMERVQGKPLDSLLKRVEEGRLVYSAHRNPKFVEDVVREIAYEAARVLGVPDEATIKVSSESDESIHPHNAYAEIDT | failed |
| MNLESKWLEDFSALAATRSFSQAAERRFVTQPAFSRRIRSLEAALGLVLVNRSRTPVELTAAGQLFLVTARTVVEQLGEVVRHLHHLEGGQGEVMQVAAAHSLALGFFPRWIAQLRNEGLNIATRLVATNVGDAVHALREGGCDLMLAFYDPDAALQMDAEIFPSLHLGHTEMLPVCAADAEGRPLFDMEGEASVPLLAYSTGAFLGRSVNLLLRQRNLRFTTVYETAMADSLKSMALEGLGIAWVPQLSVRAELARGELVVCGGPQWHVPLEIRLYRCALVRKANVRLLWRKLESAAPPESL | failed |
